In patent publication US20220056091A1 (BRIGHT PEAK THERAPEUTICS, published 2022):

T1: Fc fused human IL-18Rα (human, UniProt Q13478 19-329, limits assumed)
T1 construct: also called IL-18Rα monomer; IL-18 receptor alpha; not shown: Fc part
T1 sequence (looked up): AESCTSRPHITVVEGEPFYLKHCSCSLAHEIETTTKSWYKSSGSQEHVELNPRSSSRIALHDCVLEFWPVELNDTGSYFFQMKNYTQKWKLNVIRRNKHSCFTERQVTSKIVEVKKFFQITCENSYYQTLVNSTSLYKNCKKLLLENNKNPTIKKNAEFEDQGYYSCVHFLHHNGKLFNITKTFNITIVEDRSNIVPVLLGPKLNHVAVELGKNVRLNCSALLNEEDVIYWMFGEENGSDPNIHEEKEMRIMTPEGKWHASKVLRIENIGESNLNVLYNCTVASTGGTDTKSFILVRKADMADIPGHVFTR

T2: IL-18Rα/β heterodimer (Fc fused human IL-18Rα mixed and pre-incubated with Fc fused human IL-18Rβ) (human, UniProt Q13478 19-329; O95256 20-356, limits assumed)
T2 construct: 6 µg/mL of each receptor mixed and pre-incubated 30 min before capture on anti-human IgG; also called alpha/beta heterodimer IL-18 receptor; not shown: Fc part
T2 sequence (looked up) 1: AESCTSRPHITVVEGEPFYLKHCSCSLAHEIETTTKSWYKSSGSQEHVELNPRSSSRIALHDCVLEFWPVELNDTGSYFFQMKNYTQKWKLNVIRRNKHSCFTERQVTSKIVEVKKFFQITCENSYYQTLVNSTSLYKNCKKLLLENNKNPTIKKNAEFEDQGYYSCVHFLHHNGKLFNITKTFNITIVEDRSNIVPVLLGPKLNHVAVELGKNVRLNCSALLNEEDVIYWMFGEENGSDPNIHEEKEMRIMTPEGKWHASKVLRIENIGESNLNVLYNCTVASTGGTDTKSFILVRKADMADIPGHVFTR
T2 sequence (looked up) 2: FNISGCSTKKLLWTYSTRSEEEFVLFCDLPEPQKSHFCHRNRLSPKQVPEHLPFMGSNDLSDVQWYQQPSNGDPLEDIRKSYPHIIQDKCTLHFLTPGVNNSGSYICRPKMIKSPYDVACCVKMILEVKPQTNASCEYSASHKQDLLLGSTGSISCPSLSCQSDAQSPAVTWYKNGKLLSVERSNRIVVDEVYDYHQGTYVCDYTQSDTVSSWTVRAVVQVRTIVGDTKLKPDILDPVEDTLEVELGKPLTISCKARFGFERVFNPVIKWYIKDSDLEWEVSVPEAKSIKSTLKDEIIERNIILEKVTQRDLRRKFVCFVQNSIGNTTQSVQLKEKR

T3: Fc fused human IL-18BP isoform a (IL-18BPa) (human, UniProt O95998 31-194)
T3 construct: also called IL-18BP monomer; not shown: Fc part
T3 sequence (looked up): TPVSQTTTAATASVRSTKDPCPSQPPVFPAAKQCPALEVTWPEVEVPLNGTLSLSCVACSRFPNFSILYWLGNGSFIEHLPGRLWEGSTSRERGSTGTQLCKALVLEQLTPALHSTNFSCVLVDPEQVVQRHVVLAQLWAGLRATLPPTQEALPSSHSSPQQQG


Experiments:
[1] = target: T1, Fc fused human IL-18Rα; assay: SPR, Fc-IL-18Rα captured, 1:1 model
Procedure: (§1) The interaction of the wild type and of modified IL-18 polypeptides with human IL-18 receptor subunits were measured with Surface Plasmon Resonance (SPR) technology. Anti-human IgG antibodies were bound by amine coupling onto a CM5 chip to capture 6 μg/mL of Fc fused human IL-18Rα, 6 μg/mL of Fc fused human IL-18Rβ, or 2 μg/mL of Fc fused human IL-18BP isoform a (IL-18BPa) for 30 min before capture. In other settings, 6 μg/mL of alpha and beta IL-18 receptors were mixed and pre-incubated for 30 min before capture of the alpha/beta heterodimer IL-18 receptor.
(§2) The kinetic binding of the IL-18 analytes were measured with a Biacore 8K instrument in two-fold serial dilutions starting at 1 μM down to 0.98 nM. Regeneration of the surface back to amine coupled anti IgG antibody was done after every concentration of analyte. To measure the protein association to the receptors, the samples were injected with a flow rate of 50 μL/min for 60 s, followed by 300 s buffer only to detect the dissociation. The used running buffer was 1×PBS with 0.05% Tween20. The relative response units (RU, Y-axis) are plotted against time (s, X-axis) and analyzed in a kinetic 1:1 binding model for the monomer receptor binding and for the binding to the IL-18BP. A kinetic heterogenous ligand fit model was applied for the alpha/beta heterodimer binding.
Modified IL-18 polypeptides having sequence modifications E06K, K53A, S55A, and T63A maintained binding affinity to IL-18Rα.

[2] = target: T2, IL-18Rα/β heterodimer (Fc fused human …); assay: SPR, Fc-IL-18Rα/Fc-IL-18Rβ mix captured, heterogeneous ligand model
Procedure: as §1, §2
Modified IL-18 polypeptides bearing sequence modifications E06K, K53A, S55A, and T63A maintained binding affinity to IL-18Rα/β heterodimer.

[3] = target: T3, Fc fused human IL-18BP isoform a …; assay: SPR, Fc-IL-18BPa captured, 1:1 model
Procedure: as §1, §2
Modified IL-18 polypeptides bearing sequence modifications K53A, S55A, E06K, C38S, C68S, C76S, C127S, and/or K70C maintained binding affinity to IL-18BP.

[4] = target: IL-18R on HEK-Blue IL18R reporter cells (InvivoGen, #hkb-hmil18); assay: cell-based or functional assay

| Binder | Kd [1] [nM] | Kd [2] [nM] | Kd [3] [nM] | koff [1] [s⁻¹] | kon [1] [M⁻¹ s⁻¹] | koff [3] [s⁻¹] | kon [3] [M⁻¹ s⁻¹] | koff [2] [s⁻¹] | kon [2] [M⁻¹ s⁻¹] | EC50 (pM), HEK-Blue IL18R reporter assay [4] [pM] | Potency loss Mutant/NWT, HEK-Blue IL18R reporter assay [4] [fold] |
| --- | --- | --- | --- | --- | --- | --- | --- | --- | --- | --- | --- |
| Modified IL-18 polypeptide of SEQ ID NO: 3 (Y01G, F02A, E06K, M51G, K53A, D54A, S55A, T63A) (ligand) GAGKLKSKLSVIRNLNDQVLFIDQGNRPLFEDMTDSDCRDNAPRTIFIISGYAAAQPRGMAVAISVKCEKISTLSCENKIISFKEMNPPDNIKDTKSDIIFFQRSVPGHDNKMQFESSSYEGYFLACEKERDLFKLILKKEDELGDRSIMFTVQNED | > 1000 | > 1000 |  |  |  |  |  |  |  |  |  |
| Modified IL-18 polypeptide of SEQ ID NO: 13 (E06K, K53A, S55A, D54A) (ligand) YFGKLKSKLSVIRNLNDQVLFIDQGNRPLFEDMTDSDCRDNAPRTIFIISMYAAAQPRGMAVTISVKCEKISTLSCENKIISFKEMNPPDNIKDTKSDIIFFQRSVPGHDNKMQFESSSYEGYFLACEKERDLFKLILKKEDELGDRSIMFTVQNED | > 1000 | > 1000 | > 1000 |  |  |  |  |  |  |  |  |
| Modified IL-18 polypeptide of SEQ ID NO: 15 (C38S, C68S, C76S, C127S) (ligand) YFGKLESKLSVIRNLNDQVLFIDQGNRPLFEDMTDSDSRDNAPRTIFIISMYKDSQPRGMAVTISVKSEKISTLSSENKIISFKEMNPPDNIKDTKSDIIFFQRSVPGHDNKMQFESSSYEGYFLASEKERDLFKLILKKEDELGDRSIMFTVQNED | 231 | 315 | 0.199 | 0.0179 | 77500 | 0.000253 | 1.27e+06 | 0.022 | 69800 |  |  |
| Modified IL-18 polypeptide of SEQ ID NO: 17 (E06K, K53A, S55A, C38S, C68S, C76S, C127S, K70C) (ligand) YFGKLKSKLSVIRNLNDQVLFIDQGNRPLFEDMTDSDSRDNAPRTIFIISMYADAQPRGMAVTISVKSECISTLSSENKIISFKEMNPPDNIKDTKSDIIFFQRSVPGHDNKMQFESSSYEGYFLASEKERDLFKLILKKEDELGDRSIMFTVQNED | > 1000 | > 1000 |  |  |  |  |  |  |  |  |  |
| Modified IL-18 polypeptide of SEQ ID NO: 14 (E06K, K53A, S55A, M51G) (ligand) YFGKLKSKLSVIRNLNDQVLFIDQGNRPLFEDMTDSDCRDNAPRTIFIISGYADAQPRGMAVTISVKCEKISTLSCENKIISFKEMNPPDNIKDTKSDIIFFQRSVPGHDNKMQFESSSYEGYFLACEKERDLFKLILKKEDELGDRSIMFTVQNED | > 1000 |  | > 1000 |  |  |  |  |  |  |  |  |
| Modified IL-18 polypeptide of SEQ ID NO: 22 (E06K, K53A, C38S, C68S, C76S, C127S, K70C) (ligand) YFGKLKSKLSVIRNLNDQVLFIDQGNRPLFEDMTDSDSRDNAPRTIFIISMYADSQPRGMAVTISVKSECISTLSSENKIISFKEMNPPDNIKDTKSDIIFFQRSVPGHDNKMQFESSSYEGYFLASEKERDLFKLILKKEDELGDRSIMFTVQNED | 2210 | 48.2 | 23.2 | 0.0199 | 8970 | 0.00235 | 101000 | 0.000761 | 15800 | 9.12 | 2.74 |
| Modified IL-18 polypeptide of SEQ ID NO: 23 (K53A, T63A, C38S, C68S, C76S, C127S, K70C) (ligand) YFGKLESKLSVIRNLNDQVLFIDQGNRPLFEDMTDSDSRDNAPRTIFIISMYADSQPRGMAVAISVKSECISTLSSENKIISFKEMNPPDNIKDTKSDIIFFQRSVPGHDNKMQFESSSYEGYFLASEKERDLFKLILKKEDELGDRSIMFTVQNED | > 1000 | > 1000 | 52.8 |  |  | 0.00118 | 22400 |  |  |  |  |
| Modified IL-18 polypeptide of SEQ ID NO: 10 (E06K, K53A, S55A, T63A) (ligand) YFGKLKSKLSVIRNLNDQVLFIDQGNRPLFEDMTDSDCRDNAPRTIFIISMYADAQPRGMAVAISVKCEKISTLSCENKIISFKEMNPPDNIKDTKSDIIFFQRSVPGHDNKMQFESSSYEGYFLACEKERDLFKLILKKEDELGDRSIMFTVQNED | 147 | 132 | 49 | 0.0496 | 337000 | 0.0181 | 370000 | 0.054 | 409000 | 0.79 | 0.24 |
| Modified IL-18 polypeptide of SEQ ID NO: 16 (C38S, C68S, C76S, C127S, K70C) (ligand) YFGKLESKLSVIRNLNDQVLFIDQGNRPLFEDMTDSDSRDNAPRTIFIISMYKDSQPRGMAVTISVKSECISTLSSENKIISFKEMNPPDNIKDTKSDIIFFQRSVPGHDNKMQFESSSYEGYFLASEKERDLFKLILKKEDELGDRSIMFTVQNED | 304 | 200 | 0.374 | 0.0158 | 51900 | 0.000265 | 708000 | 0.0317 | 159000 |  |  |
| Modified IL-18 polypeptide of SEQ ID NO: 71 (E6K, C38S, K53A) (ligand) YFGKLKSKLSVIRNLNDQVLFIDQGNRPLFEDMTDSDSRDNAPRTIFIISMYADSQPRGMAVTISVKCEKISTLSCENKIISFKEMNPPDNIKDTKSDIIFFQRSVPGHDNKMQFESSSYEGYFLACEKERDLFKLILKKEDELGDRSIMFTVQNED | 72.4 | 2.92 | 2.72 | 0.0151 | 208000 | 0.0031 | 1.14e+06 | 0.0008 | 279000 | 0.86 | 0.26 |
| Modified IL-18 polypeptide of SEQ ID NO: 18 (E06K, K53A, T63A) (ligand) YFGKLKSKLSVIRNLNDQVLFIDQGNRPLFEDMTDSDCRDNAPRTIFIISMYADSQPRGMAVAISVKCEKISTLSCENKIISFKEMNPPDNIKDTKSDIIFFQRSVPGHDNKMQFESSSYEGYFLACEKERDLFKLILKKEDELGDRSIMFTVQNED | 38 | 7.01 | 10.4 | 0.00573 | 151000 | 0.00291 | 279000 | 0.000955 | 136000 | 1.77 | 0.53 |
| Modified IL-18 polypeptide of SEQ ID NO: 70 (E6K, K53A, C38S, C76S, C127S) (ligand) YFGKLKSKLSVIRNLNDQVLFIDQGNRPLFEDMTDSDSRDNAPRTIFIISMYADSQPRGMAVTISVKCEKISTLSSENKIISFKEMNPPDNIKDTKSDIIFFQRSVPGHDNKMQFESSSYEGYFLASEKERDLFKLILKKEDELGDRSIMFTVQNED | 379 | 13.2 | 29.1 | 0.0369 | 92600 | 0.0037 | 128000 | 0.0006 | 43600 | 3.73 | 1.11 |
| Modified IL-18 polypeptide of SEQ ID NO: 12 (E06K, K53A, S55A, F02A) (ligand) YAGKLKSKLSVIRNLNDQVLFIDQGNRPLFEDMTDSDCRDNAPRTIFIISMYADAQPRGMAVTISVKCEKISTLSCENKIISFKEMNPPDNIKDTKSDIIFFQRSVPGHDNKMQFESSSYEGYFLACEKERDLFKLILKKEDELGDRSIMFTVQNED | > 1000 | > 1000 | > 1000 |  |  |  |  |  |  |  |  |
